Earlier results on 1 substance are cited in article PMC5497954.

In the data set the target is IL2Rβγ (Homo sapiens) (UniProt P14784).
Chain of UniProt P14784 (P14784 27-240, chain 1 of 2): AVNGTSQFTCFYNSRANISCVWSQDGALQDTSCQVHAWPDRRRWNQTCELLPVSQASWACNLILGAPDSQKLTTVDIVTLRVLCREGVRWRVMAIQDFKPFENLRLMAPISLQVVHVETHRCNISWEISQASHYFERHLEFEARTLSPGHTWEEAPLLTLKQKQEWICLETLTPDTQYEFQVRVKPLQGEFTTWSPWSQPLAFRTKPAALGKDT
Chain of UniProt P14784 (P31785 23-262, chain 2 of 2, further chain): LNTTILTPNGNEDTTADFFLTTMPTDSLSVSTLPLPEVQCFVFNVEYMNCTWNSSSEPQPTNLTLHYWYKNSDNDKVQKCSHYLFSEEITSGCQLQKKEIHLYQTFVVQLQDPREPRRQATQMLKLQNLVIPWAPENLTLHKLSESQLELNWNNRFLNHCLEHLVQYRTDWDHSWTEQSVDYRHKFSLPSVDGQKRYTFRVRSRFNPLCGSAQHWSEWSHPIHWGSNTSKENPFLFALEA

Usually Kd stands for the equilibrium constant for the complex coming apart. For IL2 (from UniProt P60568), the dissociation constant Kd was 1 nM.
